Measured values from patent US20250346673A1.

What was measured:
[1] = molecular target: cynomolgus BDCA2 (cynomolgus monkey); test: FACS on 293F-cynoBDCA2 cells; EC50 table under the plot, unit from the x axis (nM); fit of a flat control curve [continued) e.]
human BDCA2 (human) [2] = molecular target: human BDCA2 (human) (UniProt Q8WTT0); test: FACS on CHOK1-hBDCA2 cells; EC50 table under the plot, unit from the x axis (nM); fit of a flat control curve
human BDCA2 (human) [3] = molecular target: human BDCA2 (human) (UniProt Q8WTT0); test: FACS on CHOK1-hBDCA2 cells; EC50 table under the plot, unit from the x axis (nM); fit of a flat control curve [continued) e.]

Sequence of cynomolgus BDCA2 (cynomolgus monkey) (chain, as listed by the source): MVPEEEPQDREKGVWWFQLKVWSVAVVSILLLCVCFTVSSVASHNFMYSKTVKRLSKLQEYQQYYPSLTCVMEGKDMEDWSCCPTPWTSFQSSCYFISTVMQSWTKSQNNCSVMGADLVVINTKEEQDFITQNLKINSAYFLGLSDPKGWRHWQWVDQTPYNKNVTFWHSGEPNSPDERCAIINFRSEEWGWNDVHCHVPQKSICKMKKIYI
Sequence of human BDCA2 (human) (Q8WTT0 whole entry): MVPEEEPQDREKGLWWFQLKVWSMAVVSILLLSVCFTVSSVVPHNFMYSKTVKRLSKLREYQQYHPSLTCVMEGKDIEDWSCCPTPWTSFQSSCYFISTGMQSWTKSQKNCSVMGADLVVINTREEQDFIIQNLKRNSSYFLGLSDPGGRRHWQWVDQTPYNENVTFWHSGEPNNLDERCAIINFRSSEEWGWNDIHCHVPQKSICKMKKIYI

| Substance | EC50 [1] [nM] | EC50 (human BDCA2 (human) [2]) [nM] | EC50 (human BDCA2 (human) [3]) [nM] |
| --- | --- | --- | --- |
| hIgG1 (antibody) | 21.8 | 61.3 | – |
| mIgG1 (antibody) | 20.6 | – | 176000 |
